The record followed here is publication PMC11997217, “Inactivation of GH3.5 by COP1-mediated K63-linked ubiquitination promotes seedling hypocotyl elongation” (Nature Communications, 2025).

This test addresses T1, MBP-COP1 (Arabidopsis, UniProt P43254 1-675).
T1 construct: CONSTITUTIVELY PHOTOMORPHOGENIC 1 (COP1), Arabidopsis; full-length COP1 fused with MBP-tag; The plasmid for full-length MBP-COP1 is not described in the methods; only its expression and purification are; also called CONSTITUTIVELY PHOTOMORPHOGENIC 1; full-length COP1; source: E. coli BL21, purified (amylose resin); not shown: MBP, N-terminal, kept
T1 sequence (looked up): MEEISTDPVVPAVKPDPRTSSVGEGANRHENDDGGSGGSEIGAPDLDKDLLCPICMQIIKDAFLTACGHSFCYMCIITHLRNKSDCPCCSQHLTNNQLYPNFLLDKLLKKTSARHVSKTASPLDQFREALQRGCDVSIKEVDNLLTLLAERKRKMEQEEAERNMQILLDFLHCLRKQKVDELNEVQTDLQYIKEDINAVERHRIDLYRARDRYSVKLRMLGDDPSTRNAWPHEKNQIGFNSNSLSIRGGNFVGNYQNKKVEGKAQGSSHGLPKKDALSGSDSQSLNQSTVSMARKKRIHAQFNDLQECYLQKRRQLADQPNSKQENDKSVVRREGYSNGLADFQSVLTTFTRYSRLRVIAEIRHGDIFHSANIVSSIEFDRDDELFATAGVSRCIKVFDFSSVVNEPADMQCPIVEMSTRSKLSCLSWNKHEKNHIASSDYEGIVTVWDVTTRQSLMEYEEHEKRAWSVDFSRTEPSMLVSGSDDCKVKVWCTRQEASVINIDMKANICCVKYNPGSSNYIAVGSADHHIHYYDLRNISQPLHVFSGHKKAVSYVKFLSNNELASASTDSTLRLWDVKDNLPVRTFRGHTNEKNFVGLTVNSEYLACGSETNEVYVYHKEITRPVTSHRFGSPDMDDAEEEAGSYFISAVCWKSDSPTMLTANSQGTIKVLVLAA
As to the kind of experiment: pull-down; 1 μg GST-GH3.5 and 1 μg MBP-tagged COP1 in 25 mM Tris-HCl pH 7.5, 100 mM NaCl, 0.25% NP40, 4 °C; captured on amylose resin; washed with 500 mM NaCl, 0.5% NP40; blots with anti-MBP and anti-GST. The settings on record: both partners purified.

B1: GST-GH3.5 (enzyme, Arabidopsis, UniProt O81829 1-612, looked up)
chain: MPEAPKKESLEVFDLTLDQKNKQKLQLIEELTSNADQVQRQVLEEILTRNADVEYLRRHDLNGRTDRETFKNIMPVITYEDIEPEINRIANGDKSPILSSKPISEFLTSSGTSGGERKLMPTIEEELDRRSLLYSLLMPVMSQFVPGLENGKGMYFLFIKSESKTPGGLPARPVLTSYYKSSHFKERPYDPYTNYTSPNETILCSDSYQSMYSQMLCGLCQHQEVLRVGAVFASGFIRAIKFLEKHWIELVRDIRTGTLSSLITDPSVREAVAKILKPSPKLADFVEFECKKSSWQGIITRLWPNTKYVDVIVTGTMSQYIPTLDYYSNGLPLVCTMYASSECYFGVNLRPLCKPSEVSYTLIPSMAYFEFLPVHRNNGVTNSINLPKALTEKEQQELVDLVDVKLGQEYELVVTTYAGLCRYRVGDLLRVTGFKNKAPQFSFICRKNVVLSIDSDKTDEVELQNAVKNAVTHLVPFDASLSEYTSYADTSSIPGHYVLFWELCLDGNTPIPPSVFEDCCLAVEESFNTVYRQGRVSDKSIGPLEIKIVEPGTFDKLMDYAISLGASINQYKTPRCVKFAPIIELLNSRVVDSYFSPKCPKWVPGHKQWGSN
notes: the GH3.5 CDS inserted into BamHI/EcoRI of pGEX4T-1; also called GRETCHEN HAGEN 3.5; source: E. coli BL21, purified (Glutathione Sepharose 4B); not shown: GST, N-terminal, kept
On to B1, for which the binding result was “binds”.
